From patent publication US20040053231A1 (published 2004)

Columns and labels:
[1] = target: T1, GST-p300CH1 (p300 residues 300-528) (UniProt Q09472 300-528); assay: GST pull-down of 35S-labelled in vitro translated protein on GST-p300CH1
T1 construct: range 300-528; Bacterially expressed, immobilised on glutathione beads; the construct is described in Bhattacharya et al., 1999; also called GST-CH1; GST tagged p300 (CH1 domain); not shown: glutathione S-transferase tag from pGEX4T1 (Pharmacia)

[2] = target: T2, GAL4-CH1 (residues 300-528 of p300 fused to the DNA-binding domain of GAL4) (UniProt P04386 1-147; Q09472 300-528); assay: mammalian two-hybrid, GAL4-luciferase reporter, Hep3B cells
T2 construct: also called GAL4-p300CH1

T1 sequence (Q09472 300-528): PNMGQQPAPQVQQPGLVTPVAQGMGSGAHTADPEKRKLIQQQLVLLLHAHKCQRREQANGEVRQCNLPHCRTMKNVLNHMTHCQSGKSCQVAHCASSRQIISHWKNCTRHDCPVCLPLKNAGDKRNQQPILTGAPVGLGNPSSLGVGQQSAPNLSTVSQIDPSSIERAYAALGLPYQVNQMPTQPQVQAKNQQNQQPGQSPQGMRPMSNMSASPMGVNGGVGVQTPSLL

Row | Binder | binding result [1] | binding result [2]
1 | HCITEDX mutant lacking the carboxy-terminal residues 138 to 184 (other, 35S-labelled (in vitro translated) in the GST pull-down assay, also called HCITEDXΔ; carboxy-terminal mutant) MADHLMLAEGYRLVQRPPSAAAAHGPHALRTLPPYAGPGLDSGLRPRGAPLGPPPPRQPGALAYGAFGPPSSFQPFPAVPPPAAGIAHLQPVATPYPGRAAAPPNAPGGPPGPQPAPSAAAPPPPAHALGGMDAELI | no binding | –
2 | VP16-HCITEDX? (VP16 activation domain fused to residues 1-137 of HCITEDX) (other, also called VP16-HCITEDXΔ) MADHLMLAEGYRLVQRPPSAAAAHGPHALRTLPPYAGPGLDSGLRPRGAPLGPPPPRQPGALAYGAFGPPSSFQPFPAVPPPAAGIAHLQPVATPYPGRAAAPPNAPGGPPGPQPAPSAAAPPPPAHALGGMDAELI | – | no binding
